Results published in article PMC4826287 (Journal of molecular biology, 2015).

B3: SPOP^MATH (MATH domain of Speckle-type POZ protein, residues 28-166) (domain or fragment, UniProt O43791 28-166, looked up)
chain: KVVKFSYMWTINNFSFCREEMGEVIKSSTFSSGANDKLKWCLRVNPKGLDEESKDYLSLYLLLVSCPKSEVRAKFKFSILNAKGEETKAMESQRAYRFVQGKDWGFKKFIRRDFLLDEANGLLPDDKLTLFCEVSVVQD

Tests used:
[1] = target: B3; assay: fluorescence polarisation
[2] = target: T1, SPOP^MATH-BTB (SPOP construct encompassing residues 28-337) (UniProt O43791 28-337); assay: fluorescence polarisation
[3] = target: B3; assay: fluorescence polarisation; remark: listed apart in the source
[4] = target: T2, Gli3^1-90 (90-residue N-terminal Gli3 fragment), His tag cleaved (UniProt P10071 1-90); assay: AUC
T2 sequence (looked up): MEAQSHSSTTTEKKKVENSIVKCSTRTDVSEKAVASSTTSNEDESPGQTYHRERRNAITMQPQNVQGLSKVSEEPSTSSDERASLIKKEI

[5] = target: T1, SPOP^MATH-BTB (SPOP construct …); assay: BLI
[6] = target: SPOP^MATH-BTB-BACK (SPOP construct encompassing residues 28-359) (UniProt O43791 28-359); assay: BLI
[7] = target: B3; assay: BLI
SPOP^MATH = SPOP^MATH (Homo sapiens, UniProt O43791); assay: Sedimentation velocity AUC, stoichiometry of Gli3^1-90/SPOP^MATH complex; format: binding; details: SV AUC, excess SPOP^MATH (Gli3^1-90 156 μM / SPOP^MATH 525 μM), pH 6.0, 20 °C, size-and-shape distribution analysis

B1: SBM3 (Gli3 peptide, SPOP-binding motif 3) (peptide)
peptide: Ac-KVSEEPSTSSDERA-NH2
- Kd [1]: 560 µM

B2: F-pPuc (N-terminally fluorescently labeled Puc peptide) (peptide)
peptide: ENLACDEVTSTTSSST
modifications: not fully specified; fluorescein on the N-terminus; C-terminal amide
- Kd [2]: ~6 µM
- Kd [3]: ~6 µM

Molecule: B3
- stoichiometry N [4]: ≤ 3 SPOP^MATH per Gli3^1-90

B4: His6-Gli3^1-90 (N-terminal His6 tag left on) (domain or fragment, UniProt P10071 1-90, looked up)
chain: MEAQSHSSTTTEKKKVENSIVKCSTRTDVSEKAVASSTTSNEDESPGQTYHRERRNAITMQPQNVQGLSKVSEEPSTSSDERASLIKKEI
- Kd [5]: 28 µM
- Kd [6]: 1.5 µM
- Kd [7]: 21 µM

B5: pPuc (peptide derived from the Drosophila melanogaster protein Puckered, residues 91-106) (peptide)
peptide: Ac-ENLACDEVTSTTSSST-NH2
- Kd [1]: 7.7 µM

B6: SBM1 (Gli3 peptide, SPOP-binding motif 1) (peptide)
peptide: Ac-MEAQSHSSTTTEKK-NH2
- Kd [1]: ~4100 µM

B7: SBM2 (Gli3 peptide, SPOP-binding motif 2) (peptide)
peptide: Ac-EKAVASSTTSNEDES-NH2
- Kd [1]: 80 µM

B8: Gli3^1-90: 90-residue N-terminal Gli3 fragment, recombinant, intrinsically disordered (protein)
chain: MEAQSHSSTTTEKKKVENSIVKCSTRTDVSEKAVASSTTSNEDESPGQTYHRERRNAITMQPQNVQGLSKVSEEPSTSSDERASLIKKEI
modifications: left off: His6, N-terminal, cleaved
- number of MATH domain molecules bound to 1 Gli3^1-90 molecule (SPOP^MATH): up to 3
